Measured values published in patent EP4714976A1.

Assays:
[1] = target: extracellular domain of FGFR2c protein (Example 1) (UniProt P21802); experiment: phage ELISA
[2] = target: extracellular domain of the FGFR2b protein (NP_075259.4) (UniProt P21802); experiment: phage ELISA
[3] = target: recombinant mouse FGFR2b (mouse) (UniProt P21803); experiment: ELISA, antibody 1ug/mL
FGFR1 (acro) = FGFR1 (acro) (UniProt P11362); experiment: ELISA, antibody 10 µg/mL
FGFR4 (acro) = target: T1, FGFR4 (acro) (UniProt P22455); experiment: ELISA, antibody 10 µg/mL
T1 sequence (looked up): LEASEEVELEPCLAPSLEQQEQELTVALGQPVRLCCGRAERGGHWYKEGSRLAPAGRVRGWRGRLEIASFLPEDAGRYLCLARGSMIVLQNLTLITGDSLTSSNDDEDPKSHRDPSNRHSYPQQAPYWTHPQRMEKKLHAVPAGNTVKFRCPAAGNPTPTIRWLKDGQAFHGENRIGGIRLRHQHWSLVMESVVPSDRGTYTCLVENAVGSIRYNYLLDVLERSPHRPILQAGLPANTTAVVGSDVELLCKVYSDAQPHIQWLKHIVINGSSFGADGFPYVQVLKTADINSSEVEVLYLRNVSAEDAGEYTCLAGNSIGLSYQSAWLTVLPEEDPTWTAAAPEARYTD

[4] = target: recombinant mouse FGFR2b (mouse) (UniProt P21803); experiment: BLI, antibody on AHC2 sensor

extracellular domain of the FGFR2b protein (NP_075259.4), sequence (P21802 other isoform, or with tags, fused parts or gaps): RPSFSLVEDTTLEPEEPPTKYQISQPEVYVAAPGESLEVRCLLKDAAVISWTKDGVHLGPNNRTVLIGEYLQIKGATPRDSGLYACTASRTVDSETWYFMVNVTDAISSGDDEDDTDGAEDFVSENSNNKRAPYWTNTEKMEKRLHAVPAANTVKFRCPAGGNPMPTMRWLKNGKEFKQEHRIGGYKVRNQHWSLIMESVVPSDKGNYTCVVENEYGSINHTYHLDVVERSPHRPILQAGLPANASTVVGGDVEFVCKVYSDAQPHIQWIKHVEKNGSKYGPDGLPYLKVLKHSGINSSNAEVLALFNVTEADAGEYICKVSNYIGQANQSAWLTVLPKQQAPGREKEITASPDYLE
recombinant mouse FGFR2b (mouse), sequence (P21803 22-377): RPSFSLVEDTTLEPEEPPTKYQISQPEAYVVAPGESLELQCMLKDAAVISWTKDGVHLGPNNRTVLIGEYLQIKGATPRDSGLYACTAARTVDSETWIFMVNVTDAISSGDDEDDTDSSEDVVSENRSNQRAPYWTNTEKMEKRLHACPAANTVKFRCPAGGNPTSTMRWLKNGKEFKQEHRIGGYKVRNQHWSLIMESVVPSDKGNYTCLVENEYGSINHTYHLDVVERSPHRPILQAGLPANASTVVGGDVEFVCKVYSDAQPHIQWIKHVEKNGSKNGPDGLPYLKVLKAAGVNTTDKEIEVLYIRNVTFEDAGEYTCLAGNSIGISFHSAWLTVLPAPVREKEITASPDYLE
extracellular domain of FGFR2c protein (Example 1), sequence (P21802 22-377): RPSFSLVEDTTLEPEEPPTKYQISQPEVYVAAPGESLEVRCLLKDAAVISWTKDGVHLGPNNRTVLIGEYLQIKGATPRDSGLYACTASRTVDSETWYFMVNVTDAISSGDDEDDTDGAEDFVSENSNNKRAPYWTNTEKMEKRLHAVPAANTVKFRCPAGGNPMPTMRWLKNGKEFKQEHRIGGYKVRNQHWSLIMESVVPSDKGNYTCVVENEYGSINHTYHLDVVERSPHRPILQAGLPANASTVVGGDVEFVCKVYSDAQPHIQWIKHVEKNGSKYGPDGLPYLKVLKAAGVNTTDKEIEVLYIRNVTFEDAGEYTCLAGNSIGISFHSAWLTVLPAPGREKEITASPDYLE
FGFR1 (acro), sequence (P11362 22-376): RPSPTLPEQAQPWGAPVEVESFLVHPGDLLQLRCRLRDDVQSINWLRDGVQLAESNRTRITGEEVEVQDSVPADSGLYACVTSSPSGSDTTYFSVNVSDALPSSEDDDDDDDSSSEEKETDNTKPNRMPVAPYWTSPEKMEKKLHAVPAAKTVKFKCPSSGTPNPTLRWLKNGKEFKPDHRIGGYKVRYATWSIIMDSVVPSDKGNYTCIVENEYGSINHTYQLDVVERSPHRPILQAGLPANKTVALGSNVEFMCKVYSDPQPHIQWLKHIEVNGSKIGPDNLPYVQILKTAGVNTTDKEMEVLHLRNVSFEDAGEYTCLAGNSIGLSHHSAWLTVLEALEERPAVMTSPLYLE

Row | Binder | OD (450 nm) value [1] | OD (450 nm) value [2] | OD (450 nm) value [3] | OD (450 nm) value (FGFR1 (acro)) | OD (450 nm) value (FGFR4 (acro)) | Kd [4] [nM] | koff [4] [s⁻¹] | kon [4] [M⁻¹ s⁻¹]
1 | 3D6 scFv displayed on phage (scFv) scFv: QVQLQQSGAELVKPGASVKMSCKASGYTFRYYNMHWVKRTPGQGLEWIGLIYPDNGDTSYNQKFKGKATLTADTSSSTAYMQLSSLTSEDSAVYYCARGGLDYWGQGTSLTVSSGGGGSGGGGSGGGGSDIQMTQSPASLSVSVGETVTITCRASENIYSNLAWYQQKQGKSPQLLVYNAKTLADGVPSRFSGSGSGTQYSLKINSLQPEDFGSYYCQHFWSTPFTFGSGTKLELK | 0.037 | 1.92 | – | – | – | – | – | –
2 | 3G10 scFv-Fc (Fc fusion) EVQLQQSGPELVKPGASVKMSCKASGYTFATYNMHWVKQTTGQGLEWIGAIYPDNGDTFYNRKFKDKATLTADKSSTTAYMQLSSLTSEDSAVYYCARGDFAYWGQGTLVTVSAGGGGSGGGGSGGGGSDVLMTQSPASLSASVGETVTITCGASENIYGALNWYQRKQGKSPQLLIYGATNLADGMSSRFSGSGSGRQYSLKISSLHPDDVATYYCQNVLSTPYTFGGGTKLEMKESKYGPPCPPCPAPEAAGGPSVFLFPPKPKDTLMISRTPEVTCVVVDVSQEDPEVQFNWYVDGVEVHNAKTKPREEQFNSTYRVVSVLTVLHQDWLNGKEYKCKVSNKGLPSSIEKTISKAKGQPREPQVYTLPPSQEEMTKNQVSLTCLVKGFYPSDIAVEWESNGQPENNYKTTPPVLDSDGSFFLYSKLTVDKSRWQEGNVFSCSVMHEALHNHYTQKSLSLSLG | – | – | 3 | 0.083 | 0.175 | 41.9 | 0.00195 | 46600
3 | 3F11 scFv-Fc (Fc fusion) QVQLQQSGAELVKPGASVKMSCKASGYTFAPYNIHWVRQTPGQGLEWIGLIYPDNGDTSYNQKFKAKATLTADKSSSTAYMQLSSLTSEDSAVYYCARGGFDYWGQGTSLTVSSGGGGSGGGGSGGGGSDIVMTQSQKFMSTSVGDRVSVTCKASQNVGTNVAWYQQKPGQSPKALIYSASYRYSGVPDRFTGSGSGTDFTLTISNVQSEDLAEYFCQQHYSTPFTFGSGTKLEIKESKYGPPCPPCPAPEAAGGPSVFLFPPKPKDTLMISRTPEVTCVVVDVSQEDPEVQFNWYVDGVEVHNAKTKPREEQFNSTYRVVSVLTVLHQDWLNGKEYKCKVSNKGLPSSIEKTISKAKGQPREPQVYTLPPSQEEMTKNQVSLTCLVKGFYPSDIAVEWESNGQPENNYKTTPPVLDSDGSFFLYSKLTVDKSRWQEGNVFSCSVMHEALHNHYTQKSLSLSLG | – | – | 2.92 | 0.1 | – | 26 | 0.0015 | 57800
4 | 1B8 scFv-Fc (Fc fusion) QIQLQQSGAELVKPGASVKMSCKASGYTFASYNLHWVKQTPGQGLEWIGLIYPENGDTSYNQKFKGKATLTADTSSTTAYIQLSSLTSEDSAVYFCARGGFDYWGQGTSLTVSSGGGGSGGGGSGGGGSDIKMTQSPASLSASVGETVTITCGASENIYGALNWYQRKQGKSPQLLIYGATNLADGMSSRFSGSGSGRQYSLKISSLHPDDVATYYCQNVLSTPYTFGGGTKLEIKESKYGPPCPPCPAPEAAGGPSVFLFPPKPKDTLMISRTPEVTCVVVDVSQEDPEVQFNWYVDGVEVHNAKTKPREEQFNSTYRVVSVLTVLHQDWLNGKEYKCKVSNKGLPSSIEKTISKAKGQPREPQVYTLPPSQEEMTKNQVSLTCLVKGFYPSDIAVEWESNGQPENNYKTTPPVLDSDGSFFLYSKLTVDKSRWQEGNVFSCSVMHEALHNHYTQKSLSLSLG | – | – | 2.01 | 0.092 | – | 74.9 | 0.0048 | 64000
5 | 1D7 scFv-Fc (Fc fusion) QIQLQQSGAELVKPGASVKMSCKASGYTFRYYNMHWVKRTPGQGLEWIGLIYPDNGDTSYNQKFKGKATLTADTSSSTAYMQLSSLTSEDSAVYYCARGGLDYWGQGTSLTVSSGGGGSGGGGSGGGGSDIQMTQSPSSMSASLGDRITITCQATQDIVKNLNWYQQKPGKPPSFLIYYATELAEGVPSRFSGSGSGSDYSLTISNLESEDFADYYCLQFYEFPLTFGAGTKLELKESKYGPPCPPCPAPEAAGGPSVFLFPPKPKDTLMISRTPEVTCVVVDVSQEDPEVQFNWYVDGVEVHNAKTKPREEQFNSTYRVVSVLTVLHQDWLNGKEYKCKVSNKGLPSSIEKTISKAKGQPREPQVYTLPPSQEEMTKNQVSLTCLVKGFYPSDIAVEWESNGQPENNYKTTPPVLDSDGSFFLYSKLTVDKSRWQEGNVFSCSVMHEALHNHYTQKSLSLSLG | – | – | 3.04 | 0.074 | – | 27.6 | 0.00117 | 42500
6 | 1C10 scFv-Fc (Fc fusion) QVQLQQSGAELVKPGASVKMSCKASGYTFRYYNMHWVKRTPGQGLEWIGLIYPDNGDTSYNQKFKGKATLTADTSSSTAYMQLSSLTSEDSAVYYCARGGLDYWGQGTSLTVSSGGGGSGGGGSGGGGSDIVMTQSPASLSASVGETVTITCRASGNIHNYLAWYQQKQGKSPQLLVYNAKTLADGVPSRFSGSGSGTQYSLKINSLQPEDFGSYYCQHFWSTPYTFGGGTKLEMKESKYGPPCPPCPAPEAAGGPSVFLFPPKPKDTLMISRTPEVTCVVVDVSQEDPEVQFNWYVDGVEVHNAKTKPREEQFNSTYRVVSVLTVLHQDWLNGKEYKCKVSNKGLPSSIEKTISKAKGQPREPQVYTLPPSQEEMTKNQVSLTCLVKGFYPSDIAVEWESNGQPENNYKTTPPVLDSDGSFFLYSKLTVDKSRWQEGNVFSCSVMHEALHNHYTQKSLSLSLG | – | – | 2.94 | 0.626 | – | 75.6 | 0.00216 | 28600
7 | 2B2 scFv-Fc (Fc fusion) QLQLQQSGAELVKPGASVKMSCKASGYTFASYNLHWVKQTPGQGLEWIGLIYPENGDTSYNQKFKDKATLTADKSSTTAYIQLSSLASEDSAVYFCARGGFDYWGQGTTLTVSSGGGGSGGGGSGGGGSDIVMTQSQKFMSTSVGDRVSVTCKASQNVGTNVAWYQQKPGQSPKALIYSASYRYSGVPDRFTGSGSGTDYTLTISSVQAEDLALYYCQQHYSTPYTFGGGTKLELKESKYGPPCPPCPAPEAAGGPSVFLFPPKPKDTLMISRTPEVTCVVVDVSQEDPEVQFNWYVDGVEVHNAKTKPREEQFNSTYRVVSVLTVLHQDWLNGKEYKCKVSNKGLPSSIEKTISKAKGQPREPQVYTLPPSQEEMTKNQVSLTCLVKGFYPSDIAVEWESNGQPENNYKTTPPVLDSDGSFFLYSKLTVDKSRWQEGNVFSCSVMHEALHNHYTQKSLSLSLG | – | – | 3.09 | 0.109 | – | 53.5 | 0.00235 | 43900
8 | 3A3 scFv-Fc (Fc fusion) QVQLQQSGAELVKPGASVKMSCKASGYTFTTYNIHWVRQTPGQGLEWIGLIYPDNGDTSYNQKFKAKATLTADKSSSTAYMHLSSLTSEDSAVYYCARGGFDYWGQGTTLTVSSGGGGSGGGGSGGGGSDIVMTQSHKFMSTSVGDRVSITCKASQDVNTDVSWYQQKPGQSPKLLIYSASYRYTGVPTRFTGSGSGTDFTFTISGVQAEDLADYYCQQHYNTPYTFGGGTRLEIKESKYGPPCPPCPAPEAAGGPSVFLFPPKPKDTLMISRTPEVTCVVVDVSQEDPEVQFNWYVDGVEVHNAKTKPREEQFNSTYRVVSVLTVLHQDWLNGKEYKCKVSNKGLPSSIEKTISKAKGQPREPQVYTLPPSQEEMTKNQVSLTCLVKGFYPSDIAVEWESNGQPENNYKTTPPVLDSDGSFFLYSKLTVDKSRWQEGNVFSCSVMHEALHNHYTQKSLSLSLG | – | – | 2.63 | 0.097 | – | 39.6 | 0.00122 | 30800
9 | 1C10 scFv displayed on phage (scFv) scFv: QVQLQQSGAELVKPGASVKMSCKASGYTFRYYNMHWVKRTPGQGLEWIGLIYPDNGDTSYNQKFKGKATLTADTSSSTAYMQLSSLTSEDSAVYYCARGGLDYWGQGTSLTVSSGGGGSGGGGSGGGGSDIVMTQSPASLSASVGETVTITCRASGNIHNYLAWYQQKQGKSPQLLVYNAKTLADGVPSRFSGSGSGTQYSLKINSLQPEDFGSYYCQHFWSTPYTFGGGTKLEMK | 0.068 | 2.55 | – | – | – | – | – | –
10 | 3A12 scFv displayed on phage (scFv) scFv: EVQLQQSGAELVKPGASVKMSCKASGYTFSFYNVHWVRQTPGQGLEWIGLIYPDNGDTSYNQKFKAKATLTADKSSSAAYMQLSSLTSEDSAVYYCARGGFDYWGQGTSLTVSSGGGGSGGGGSGGGGSDIVMTQSHKFMSTSVGDRVNITCKASQDVSTAVAWYQQKPGQSPKLLIYSASYRYSGVPDRFTGSGSGTDFTFTISSVQAEDLAVYYCQQHYSTPYTFGGGTKLEMK | 0.1 | 2.41 | – | – | – | – | – | –
11 | 3H9 scFv displayed on phage (scFv) scFv: EIQLQQSGAELVKPGASVKMSCKASGYTFSFYNMHWVKRTPGQGLEWIGLIYPDNGDTSYNQKFKGKATLTADTSSSTAYMQLSSLTSEDSAVYYCARGGLDYWGQGTTLTVSSGGGGSGGGGSGGGGSDIVLTQSPASLSVSVGETVTITCRASENIYSNLAWYQQKQGKSPQLLVYAATNLADGVPSRFSGSGSGTQYSLKINSLQSEDFGSYYCQHFWGTPYTFGGGTKLELK | 0.073 | 2.22 | – | – | – | – | – | –
